Measured values reported in the supplement of paper PMC10567573.

B1: PLAGL1 (parent)
chain: EKPPSGTKEKKHQCDHCERCFYTR

Variants of: B1
Experiment: protein stability index of a GFP-peptide fusion (GPS, HEK-293T) (PSI 1-6); higher = more stable
Conditions: c terminus: a fixed tail appended
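Further: lentivirally expressed fusions sorted by FACS into six bins by GFP to DsRed ratio, PSI derived from sequencing read proportions per bin multiplied by bin number.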

| Variant | protein stability index |
| --- | --- |
| EKPPSGTKEKKHQVDHCERCFYTR | 4.55 |
| EKPPSGTKEKKHQGDHCERCFYTR | 3.96 |
| EKPPSGTKEKKHQLDHCERCFYTR | 4.19 |
| EKPPSGTKEKKHQIDHCERCFYTR | 3.73 |
| EKPPSGTKEKKHQMDHCERCFYTR | 4.11 |
| EKPPSGTKEKKHQFDHCERCFYTR | 3.81 |
| EKPPSGTKEKKHQKDHCERCFYTR | 4.08 |
| EKPPSGTKEKKHQPDHCERCFYTR | 4.03 |
| EKPPSGTKEKKHQEDHCERCFYTR | 4.84 |
| EKPPSGTKEKKHQADHCERCFYTR | 3.97 |
| EKPPSGTKEKKHQSDHCERCFYTR | 4.02 |
| EKPPSGTKEKKHQNDHCERCFYTR | 3.71 |
| EKPPSGTKEKKHQWDHCERCFYTR | 3.4 |
| EKPPSGTKEKKHQRDHCERCFYTR | 3.97 |
| EKPPSGTKEKKHQHDHCERCFYTR | 3.57 |
| EKPPSGTKEKKHQQDHCERCFYTR | 4.06 |
| EKPPSGTKEKKHQDDHCERCFYTR | 4.14 |
| EKPPSGTKEKKHQYDHCERCFYTR | 3.56 |
| EKPPSGTKEKKHQTDHCERCFYTR | 3.8 |
| EKPPSGTKEKKHQCDHCERHFYTR | 2.58 |
| EKPPSGTKEKKHQCDHCERSFYTR | 1.74 |
| EKPPSGTKEKKHQCDHCERQFYTR | 2.37 |
| EKPPSGTKEKKHQCDHCERAFYTR | 2.48 |
| EKPPSGTKEKKHQCDHCERGFYTR | 2.5 |

| Variant | protein stability index |
| --- | --- |
| EKPPSGTKEKKHQCDHCERLFYTR | 2.95 |
| EKPPSGTKEKKHQCDHCERRFYTR | 1.98 |
| EKPPSGTKEKKHQCDHCERKFYTR | 3.58 |
| EKPPSGTKEKKHQCDHCERMFYTR | 2.23 |
| EKPPSGTKEKKHQCDHCERDFYTR | 2.59 |
| EKPPSGTKEKKHQCDHCERVFYTR | 3.06 |
| EKPPSGTKEKKHQCDHCEREFYTR | 3.37 |
| EKPPSGTKEKKHQCDHCERFFYTR | 2.56 |
| EKPPSGTKEKKHQCDHCERIFYTR | 2.68 |
| EKPPSGTKEKKHQCDHCERTFYTR | 3.04 |
| EKPPSGTKEKKHQCDHCERNFYTR | 2.6 |
| EKPPSGTKEKKHQCDHCERPFYTR | 3.07 |
| EKPPSGTKEKKHDCDHCERCFYTR | 4.33 |
| EKPPSGTKEKKHECDHCERCFYTR | 4.31 |
| EKPPSGTKEKKHRCDHCERCFYTR | 2.77 |
| EKPPSGTKEKKHWCDHCERCFYTR | 2.8 |
| EKPPSGTKEKKHGCDHCERCFYTR | 2.34 |
| EKPPSGTKEKKHKCDHCERCFYTR | 3.67 |
| EKPPSGTKEKKHLCDHCERCFYTR | 3.26 |
| EKPPSGTKEKKHYCDHCERCFYTR | 2.73 |
| EKPPSGTKEKKHVCDHCERCFYTR | 3.17 |
| EKPPSGTKEKKHNCDHCERCFYTR | 3.74 |
| EKPPSGTKEKKHICDHCERCFYTR | 3.21 |
| EKPPSGTKEKKHFCDHCERCFYTR | 3.2 |

| Variant | protein stability index |
| --- | --- |
| EKPPSGTKEKKHACDHCERCFYTR | 3.4 |
| EKPPSGTKEKKHHCDHCERCFYTR | 3.28 |
| EKPPSGTKEKKHSCDHCERCFYTR | 3.25 |
| EKPPSGTKEKKHCCDHCERCFYTR | 3.19 |
| EKPPSGTKEKKHTCDHCERCFYTR | 3.29 |
| EKPPSGTKEKKHMCDHCERCFYTR | 3.55 |
| EKPPSGTKEKKHPCDHCERCFYTR | 2.52 |
| EKPPSGTKEKKTQCDHCERCFYTR | 3.24 |
| EKPPSGTKEKKWQCDHCERCFYTR | 1.89 |
| EKPPSGTKEKKCQCDHCERCFYTR | 4.59 |
| EKPPSGTKEKKIQCDHCERCFYTR | 2.6 |
| EKPPSGTKEKKMQCDHCERCFYTR | 2.28 |
| EKPPSGTKEKKYQCDHCERCFYTR | 2.15 |
| EKPPSGTKEKKLQCDHCERCFYTR | 2.55 |
| EKPPSGTKEKKQQCDHCERCFYTR | 3.23 |
| EKPPSGTKEKKGQCDHCERCFYTR | 2.42 |
| EKPPSGTKEKKKQCDHCERCFYTR | 3.55 |
| EKPPSGTKEKKFQCDHCERCFYTR | 2.39 |
| EKPPSGTKEKKEQCDHCERCFYTR | 3.04 |
| EKPPSGTKEKKRQCDHCERCFYTR | 2.17 |
| EKPPSGTKEKKSQCDHCERCFYTR | 2.88 |
| EKPPSGTKEKKNQCDHCERCFYTR | 2.52 |
| EKPPSGTKEKKDQCDHCERCFYTR | 3.09 |
| EKPPSGTKEKKAQCDHCERCFYTR | 2.44 |

| Variant | protein stability index |
| --- | --- |
| EKPPSGTKEKKVQCDHCERCFYTR | 1.99 |
| EKPPSGTKEKKPQCDHCERCFYTR | 2.2 |
| EKPPSGTKEKNHQCDHCERCFYTR | 3.63 |
| EKPPSGTKEKDHQCDHCERCFYTR | 4.99 |
| EKPPSGTKEKTHQCDHCERCFYTR | 3.84 |
| EKPPSGTKEKLHQCDHCERCFYTR | 3.97 |
| EKPPSGTKEKQHQCDHCERCFYTR | 4.28 |
| EKPPSGTKEKEHQCDHCERCFYTR | 4.6 |
| EKPPSGTKEKVHQCDHCERCFYTR | 3.86 |
| EKPPSGTKEKYHQCDHCERCFYTR | 3.81 |
| EKPPSGTKEKGHQCDHCERCFYTR | 4.29 |
| EKPPSGTKEKIHQCDHCERCFYTR | 3.71 |
| EKPPSGTKEKPHQCDHCERCFYTR | 3.59 |
| EKPPSGTKEKRHQCDHCERCFYTR | 3.71 |
| EKPPSGTKEKFHQCDHCERCFYTR | 3.67 |
| EKPPSGTKEKSHQCDHCERCFYTR | 3.79 |
| EKPPSGTKEKHHQCDHCERCFYTR | 4.06 |
| EKPPSGTKEKWHQCDHCERCFYTR | 4.32 |
| EKPPSGTKEKAHQCDHCERCFYTR | 3.73 |
| EKPPSGTKEKMHQCDHCERCFYTR | 4.04 |
| EKPPSGTKEKKHQCDHCGRCFYTR | 3.22 |
| EKPPSGTKEKKHQCDHCCRCFYTR | 2.69 |
